{"source": "patent US20220275049A1", "about": "“ANTIGENIC POLYPEPTIDES AND METHODS OF USE THEREOF” (AGENUS INC., priority 2019, published 2022)", "note": "Square brackets hold non-standard residues; d marks the D form. Ends that are not written are not given here. pT = C[C@@H](OP(=O)(O)O)[C@H](N)C(=O)O; pS = N[C@@H](COP(=O)(O)O)C(=O)O", "data": [{"target": "biotinylated HLA-A*02:01 with β2m (human)", "test": "AlphaScreen, peptide titrated on biotinylated HLA + b2m", "conditions": "remark: other sources report otherwise", "units": {"Kd": "nM"}, "values": [{"binder": "SMTR[pS]PPRV", "note": "[SMTRsPPRV]", "Kd": 701}, {"binder": "KLIDRTE[pS]L", "note": "[KLIDRTEsL]", "Kd": 260}, {"binder": "RQA[pS]IELPSM", "note": "[RQAsIELPSM]", "Kd": 20.4}, {"binder": "VLL[pS]PVPEL", "note": "[VLLsPVPEL]", "Kd": 150}, {"binder": "RQA[pS]IELPSMAV", "note": "[RQAsIELPSMAV]", "Kd": 14.8}, {"binder": "VLY[pS]PQMAL", "note": "[VLYsPQMAL]", "Kd": 40.5}, {"binder": "SLFGG[pS]VKL", "note": "[SLFGGsVKL]", "Kd": 53.9}, {"binder": "RTL[pS]HISEA", "note": "[RTLsHISEA]", "Kd": 157}, {"binder": "GLLG[pS]PVRA", "note": "[GLLGsPVRA]", "Kd": 431}, {"binder": "RVA[pS]PTSGV", "note": "[RVAsPTSGV]", "Kd": 242}, {"binder": "GPRSA[pS]LL[pS]L", "note": "[GPRSAsLLsL]", "Kd": 500}]}, {"target": "biotinylated HLA-B*07:02 with β2m (human)", "test": "AlphaScreen, peptide titrated on biotinylated HLA + b2m", "conditions": "remark: other sources report otherwise", "units": {"Kd": "nM"}, "values": [{"binder": "RPT[pS]RLNRL", "note": "[RPTsRLNRL]", "Kd": 117}, {"binder": "TPR[pS]PPLGLI", "note": "[TPRsPPLGLI]", "Kd": 91}, {"binder": "TPR[pS]PPLGL", "note": "[TPRsPPLGL]", "Kd": 75.5}, {"binder": "RPRPV[pS]PSSL", "note": "[RPRPVsPSSL]", "Kd": 218}, {"binder": "GPRSA[pS]LLSL", "note": "[GPRSAsLLSL]", "Kd": 34.1}, {"binder": "QPR[pT]PSPLVL", "note": "[QPRtPSPLVL]", "Kd": 199}, {"binder": "RVR[pS]PTRSP", "note": "[RVRsPTRSP]", "Kd": 551}, {"binder": "EPR[pS]PSHSM", "note": "[EPRsPSHSM]", "Kd": 199}, {"binder": "GPRSASLL[pS]L", "note": "[GPRSASLLsL]", "Kd": 47.1}, {"binder": "RPS[pS]LPDL", "note": "[RPSsLPDL]", "Kd": 369}, {"binder": "RVA[pS]PTSGV", "note": "[RVAsPTSGV]", "Kd": 227}, {"binder": "GPRSA[pS]LL[pS]L", "note": "[GPRSAsLLsL]", "Kd": 50}]}, {"target": "biotinylated HLA-C*07:01 with β2m (human)", "test": "AlphaScreen, peptide titrated on biotinylated HLA + b2m", "conditions": "remark: other sources report otherwise", "units": {"Kd": "nM"}, "values": [{"binder": "RTL[pS]HISEA", "note": "[RTLsHISEA]", "Kd": 380}]}]}
